Data as given in US20230212319A1, “NOVEL ANTIGEN BINDING DOMAINS AND SYNTHETIC ANTIGEN RECEPTORS INCORPORATING THE SAME” (University of Southern California, priority 2020, published 2023).
“Also recorded” adds a separate entry of the source.

How the values were obtained:
[1] = test system: RAJI cells; assay: JNG (Jurkat NFAT-GFP) cells expressing SAR: GFP induction on co-culture with RAJI; details: CD19 hu-mROO5-1 SIRs with deletion mutants of TCR constant chains; flow cytometry
[2] = test system: LNCaP-LucPPe cells; assay: LNCaP-LucPPE xenograft in NSG mice, with rechallenge; format: in vivo; details: for tumor control (bioluminescence imaging, caliper tumor volume), LNCaP-LucPPE xenograft: 1 × 10^6 LNCaP-LucPPe s.c., 17 days later 3 × 10^6 T cells i.v., male NSG mice; for survival, LNCaP-LucPPE xenograft: mouse, in vivo

B1: 22641 (protein)
chain: MALPVTALLLPLALLLHAARPDIQMTQSPSSLSASVGDRVTITCKASDHINNWLAWYQQKPGQAPKLLIYGATTLETGVPSRFSGSGSGTDYTLTISSLQPEDFATYYCQQSWNTPWTFGQGTKLEIKRLEAEISHTQKATLVCLATGFYPDHVELSWWVNGKEVHSGVCTDPQPLKEQPALNDSRYCLSSRLRVSATFWQNPRNHFRCQVQFYGLSENDEWTQDRAKPVTQIVSAEAWGRADCGFTSESYQQGVLSATILYEILLGKATLYAVLVSALVLMAMVKRKDSRGRAKRSGSGATNFSLLKQAGDVEENPGPTSMDWIWRILFLVGAATGAHSFEQVQLQQPGAELVKPGASVKMSCKASGYAFSSYWINWMKQKPGQGLEWIGQIYPGDGDTNYNGKFKGRATLTADTSSSTAYMQLSSLTSEDSAVYFCARSITTVVGCAMDYWGQGTSVTVSSTRDKSVCLFTDFDSQTNVSQSKDSDVYITDKCVLDMRSMDFKSNSAVAWSNKSDFACANAFNNSIIPEDTFFPSPESSCDVKLVEKSFETDTNLNFQNLSVIGFRILLLKVAGFNLLMTLRLWSSRAKRSGSGVKQTLNFDLLKLAGDVESNPGPSRGHMTEYKPTVRLATRDDVPRAVRTLAAAFADYPATRHTVDPDRHIERVTELQELFLTRVGLDIGKVWVADDGAAVAVWTTPESVEAGAVFAEIGPRMAELSGSRLAAQQQMEGLLAPHRPKEPAWFLATVGVSPDHQGKGLGSAVVLPGVEAAERAGVPAFLETSAPRNLPFYERLGFTVTADVEVPEGPRTWCMTRKPGA
In the case of B1, the “Jurkat-NFAT ASSA Y: Raji” value [1] is reported as “significant GFP induction”.

B2: 9694 (protein)
chain: MALPVTALLLPLALLLHAARPDIVMTQSHKFMSTSVGDRVSIICKASQDVGTAVDWYQQKPGQSPKLLIYWASTRHTGVPDRFTGSGSGTDFTLAITNVQSEDLADYFCQQYNSYPLTFGAGTKLEIKRLEDLKNVFPPEVAVFEPSEAEISHTQKATLVCLATGFYPDHVELSWWVNGKEVHSGVCTDPQPLKEQPALNDSRYCLSSRLRVSATFWQNPRNHFRCQVQFYGLSENDEWTQDRAKPVTQIVSAEAWGRADCGFTSESYQQGVLSATILYEILLGKATLYAVLVSALVLMAMVKRKDSRGRAKRSGSGATNFSLLKQAGDVEENPGPTSMDWIWRILFLVGAATGAHSFEEVQLQQSGPELVKPGTSVRISCKTSGYTFTEYTIHWVKQSHGKSLEWIGNINPNNGGTTYNQKFEDKATLTVDKSSSTAYMELRSLTSEDSAVYYCAAGWNFDYWGQGTTLTVSSTRIQNPDPAVYQLRDSKSSDKSVCLFTDFDSQTNVSQSKDSDVYITDKCVLDMRSMDFKSNSAVAWSNKSDFACANAFNNSIIPEDTFFPSPESSCDVKLVEKSFETDTNLNFQNLSVIGFRILLLKVAGFNLLMTLRLWSS
modifications: Synthetic Polynucloetide
For B2, the “tumor control (bioluminescence imaging, caliper tumor volume), LNCaP-LucPPE xenograft” value (“tumor control” below) [2] was “effective control of tumor” and the “survival, LNCaP-LucPPE xenograft” value [2] was “improvement in survival”.

B3: 9970 (protein)
chain: MALPVTALLLPLALLLHAARPDIVMTQSHKFMSTSVGDRVSIICKASQDVGTAVDWYQQKPGQSPKLLIYWASTRHTGVPDRFTGSGSGTDFTLAITNVQSEDLADYFCQQYNSYPLTFGAGTKLEIKRLEDLKNVFPPEVAVFEPSEAEISHTQKATLVCLATGFYPDHVELSWWVNGKEVHSGVCTDPQPLKEQPALNDSRYCLSSRLRVSATFWQNPRNHFRCQVQFYGLSENDEWTQDRAKPVTQIVSAEAWGRADCGFTSESYQQGVLSATILYEILLGKATLYAVLVSALVLMAMVKRKDSRGRAKRSGSGATNFSLLKQAGDVEENPGPTSMDWIWRILFLVGAATGAHSFEEVQLVESGGGLVQPGGSLRLSCAASGYTFTEYTIHWVRQAPGKGLEWVANINPNNGGTTYNQKFEDRFTISRDNSKNTLYLQMNSLRAEDTAVYYCARGWNFDYWGQGTLVTVSSTRIQNPDPAVYQLRDSKSSDKSVCLFTDFDSQTNVSQSKDSDVYITDKCVLDMRSMDFKSNSAVAWSNKSDFACANAFNNSIIPEDTFFPSPESSCDVKLVEKSFETDTNLNFQNLSVIGFRILLLKVAGFNLLMTLRLWSS
modifications: Synthetic Polynucloetide
With B3 the “tumor control” value [2] was “statistically significant and effective tumor control”.

B4: 9762 (protein)
chain: MALPVTALLLPLALLLHAARPDIQMTQSPSSLSASVGDRVTITCKASQDVGTAVDWYQQKPGKAPKLLIYWASTRHTGVPSRFSGSGSGTDFTLTISSLQPEDFATYYCQQYNSYPLTFGQGTKVEIKRLEDLKNVFPPEVAVFEPSKAEIAHTQKATLVCLATGFYPDHVELSWWVNGKEVHSGVCTDPQPLKEQPALNDSRYCLSSRLRVSATFWQNPRNHFRCQVQFYGLSENDEWTQDRAKPVTQIVSAEAWGRADCGITSASYHQGVLSATILYEILLGKATLYAVLVSALVLMAMVKRKDSRGRAKRSGSGATNFSLLKQAGDVEENPGPTSMDWIWRILFLVGAATGAHSFEEVQLVESGGGLVQPGGSLRLSCAASGYTFTEYTIHWVRQAPGKGLEWVANINPNNGGTTYNQKFEDRFTISRDNSKNTLYLQMNSLRAEDTAVYYCARGWNFDYWGQGTLVTVSSTRIQNPDPAVYQLRDSKSSDKSVCLFTDFDSQTNVSQSKDSDVYITDKCVLDMRSMDFKSNSAVAWSNKSDFACANAFNNSIIPEDTFFPSSDVPCDVKLVEKSFETDTNLNFQNLSVIGFRILLLKVAGFNLLMTLRLWSSRAKRSGSGVKQTLNFDLLKLAGDVESNPGPSRGHMTEYKPTVRLATRDDVPRAVRTLAAAFADYPATRHTVDPDRHIERVTELQELFLTRVGLDIGKVWVADDGAAVAVWTTPESVEAGAVFAEIGPRMAELSGSRLAAQQQMEGLLAPHRPKEPAWFLATVGVSPDHQGKGLGSAVVLPGVEAAERAGVPAFLETSAPRNLPFYERLGFTVTADVEVPEGPRTWCMTRKPGA
modifications: Synthetic Polynucloetide
With B4 the “tumor control” value [2] was “statistically significant and effective tumor control”.

B5: 9763 (protein)
chain: MALPVTALLLPLALLLHAARPDIQMTQSPSSLSASVGDRVTITCKASQDVGTAVDWYQQKPGKAPKLLIYWASTRHTGVPSRFSGSGSGTDFTLTISSLQPEDFATYYCQQYNSYPLTFGQGTKVEIKRLEDLKNVFPPEVAVFEPSEAEISHTQKATLVCLATGFYPDHVELSWWVNGKEVHSGVCTDPQPLKEQPALNDSRYCLSSRLRVSATFWQNPRNHFRCQVQFYGLSENDEWTQDRAKPVTQIVSAEAWGRADCGFTSESYQQGVLSATILYEILLGKATLYAVLVSALVLMAMVKRKDSRGRAKRSGSGATNFSLLKQAGDVEENPGPTSMDWIWRILFLVGAATGAHSFEEVQLVESGGGLVQPGGSLRLSCAASGYTFTEYTIHWVRQAPGKGLEWVANINPNNGGTTYNQKFEDRFTISRDNSKNTLYLQMNSLRAEDTAVYYCARGWNFDYWGQGTLVTVSSTRIQNPDPAVYQLRDSKSSDKSVCLFTDFDSQTNVSQSKDSDVYITDKCVLDMRSMDFKSNSAVAWSNKSDFACANAFNNSIIPEDTFFPSPESSCDVKLVEKSFETDTNLNFQNLSVIGFRILLLKVAGFNLLMTLRLWSS
modifications: Synthetic Polynucloetide
B5 was tested, and the “tumor control” value [2] was “effective control of tumor” and the “survival, LNCaP-LucPPE xenograft” value [2] was “improvement in survival”.

B6: 9901 (protein)
chain: MALPVTALLLPLALLLHAARPDIQMTQSPSSLSASVGDRVTITCKASQDVGTAVDWYQQKPGKAPKLLIYWASTRHTGVPSRFSGSGSGTDFTLTISSLQPEDFATYYCQQYNSYPLTFGQGTKVEIKRLEDLKNVFPPEVAVFEPSEAEISHTQKATLVCLATGFYPDHVELSWWVNGKEVHSGVCTDPQPLKEQPALNDSRYCLSSRLRVSATFWQNPRNHFRCQVQFYGLSENDEWTQDRAKPVTQIVSAEAWGRADCGFTSESYQQGVLSATILYEILLGKATLYAVLVSALVLMAMVKRKDSRGRAKRSGSGATNFSLLKQAGDVEENPGPTSMDWIWRILFLVGAATGAHSFEEVQLQQSGPELVKPGTSVRISCKTSGYTFTEYTIHWVKQSHGKSLEWIGNINPNNGGTTYNQKFEDKATLTVDKSSSTAYMELRSLTSEDSAVYYCAAGWNFDYWGQGTTLTVSSTRIQNPDPAVYQLRDSKSSDKSVCLFTDFDSQTNVSQSKDSDVYITDKCVLDMRSMDFKSNSAVAWSNKSDFACANAFNNSIIPEDTFFPSPESSCDVKLVEKSFETDTNLNFQNLSVIGFRILLLKVAGFNLLMTLRLWSS
modifications: Synthetic Polynucloetide
In the case of B6, the “tumor control” value [2] is reported as “effective control of tumor; also recorded: statistically significant and effective tumor control” and the “survival, LNCaP-LucPPE xenograft” value [2] is reported as “improvement in survival”.

B7: 9832 (protein)
chain: MALPVTALLLPLALLLHAARPDIQMTQSPSSLSASVGDRVTITCKASQDVGTAVDWYQQKPGKAPKLLISWASTRHTGVPSRFSGSGSGTDFTLTISSLQPEDFATYFCQQYNSYPLTFGQGTKVEIKRTVLEDLKNVFPPEVAVFEPSEAEISHTQKATLVCLATGFYPDHVELSWWVNGKEVHSGVCTDPQPLKEQPALNDSRYCLSSRLRVSATFWQNPRNHFRCQVQFYGLSENDEWTQDRAKPVTQIVSAEAWGRADCGFTSESYQQGVLSATILYEILLGKATLYAVLVSALVLMAMVKRKDSRGRAKRSGSGATNFSLLKQAGDVEENPGPTSMDWIWRILFLVGAATGAHSFEQVQLVQSGAEVKKPGESVKVSCKASGYTFTEYTIHWVRQAPGQGLEWMGNINPNNGGTTYNQKFEDRVTITADKSTSTAYMELSSLRSEDTAVYYCARGWNFDYWGQGTTVTVSSTRIQNPDPAVYQLRDSKSSDKSVCLFTDFDSQTNVSQSKDSDVYITDKCVLDMRSMDFKSNSAVAWSNKSDFACANAFNNSIIPEDTFFPSPESSCDVKLVEKSFETDTNLNFQNLSVIGFRILLLKVAGFNLLMTLRLWSS
modifications: Synthetic Polynucloetide
For B7, the “tumor control” value [2] was “effective control of tumor” and the “survival, LNCaP-LucPPE xenograft” value [2] was “improvement in survival”.
